# T1: HLA-DQ2.5 on HLA-DQ2.5 positive PBMC-B cells (human, UniProt P01909 24-254; P01920 33-261)
# T1 construct: also called DQ2.5 + PBMC; HLA-DQ2.5+PBMC B cell
# T1 MHC II alpha: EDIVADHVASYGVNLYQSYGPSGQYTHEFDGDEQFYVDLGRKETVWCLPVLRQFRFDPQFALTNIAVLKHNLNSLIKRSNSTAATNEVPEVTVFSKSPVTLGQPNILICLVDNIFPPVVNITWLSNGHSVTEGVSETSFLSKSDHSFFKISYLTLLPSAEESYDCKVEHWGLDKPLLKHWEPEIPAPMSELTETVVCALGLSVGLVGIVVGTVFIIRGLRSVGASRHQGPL
# T1 MHC II beta: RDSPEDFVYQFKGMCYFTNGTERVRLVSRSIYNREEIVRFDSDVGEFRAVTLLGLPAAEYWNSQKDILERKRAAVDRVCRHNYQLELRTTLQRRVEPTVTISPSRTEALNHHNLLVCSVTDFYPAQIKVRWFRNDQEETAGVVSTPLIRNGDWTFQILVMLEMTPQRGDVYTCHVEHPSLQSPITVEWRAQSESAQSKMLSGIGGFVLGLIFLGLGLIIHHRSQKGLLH
# T2: HLA-DQ2.5 on Ba/F3 cells (not in the form of a complex with a linked peptide) (human, UniProt P01909 24-254; P01920 33-261)
# T2 construct: also called Ba/F3-HLA-DQ2.5; No peptide
# T2 MHC II alpha: T1 MHC II alpha
# T2 MHC II beta: T1 MHC II beta
# T3: recombinant HLA-DQ2.5/33mer gliadin peptide complex (human; wheat)
# T3 construct: also called soluble HLA-DQ2.5/33mer gliadin peptide complex
# T3 alpha: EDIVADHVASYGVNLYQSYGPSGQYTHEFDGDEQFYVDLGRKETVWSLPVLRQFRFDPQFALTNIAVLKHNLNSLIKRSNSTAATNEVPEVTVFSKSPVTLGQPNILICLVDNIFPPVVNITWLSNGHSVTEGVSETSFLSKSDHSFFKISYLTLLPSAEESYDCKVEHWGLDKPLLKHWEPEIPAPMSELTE
# T3 beta: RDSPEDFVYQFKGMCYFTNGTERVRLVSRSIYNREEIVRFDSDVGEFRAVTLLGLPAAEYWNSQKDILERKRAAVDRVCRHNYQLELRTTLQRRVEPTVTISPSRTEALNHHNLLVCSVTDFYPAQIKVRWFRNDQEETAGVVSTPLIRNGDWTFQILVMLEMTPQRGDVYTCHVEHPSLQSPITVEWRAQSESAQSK
# T3 peptide: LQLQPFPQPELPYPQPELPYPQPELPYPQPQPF
# B1: DQN0235ee (antibody, human IgG1, kappa, V domains shown)
# VH: QQQLEESGGGLVKPGGTLTLTCKAGIDFSTYYYMCWVRQAPGKRPEWIACIFDGDGSTYYASWVNGRFTISKASSTTVTLRMTSLTAADTATYFCARSAGGSSSFGYFNLWGPGTLVTVSS
# VL: AYDMTQTPSSVSAAVGGTVTIKCQASQSISSSYLAWYHQKPGQSPKLLIYSASTLASGVPSRFKGSGSGTEFTLTISDLACADAATYYCQSYYYFSSNAWHTFGGGTKVEIKR
# notes: also called DQN0235He; DQN0235Le
# B2: DQN0271hh (antibody, human IgG1, kappa, V domains shown)
# VH: QSLEESGGGLVKPGASLTLTCKASGFSFSSGYYMCWVRQAPGKGLEWIACIYAGSPDLTYYATWAKGRLTISTTSSTTVTLQLTSLTAADTATYFCARDPGNWGGYDDVRLWGPGTLVTVSS
# VL: AQVLTQTPSPVSAAVGGTVTISCQSSQSIYSNYLSWFQQKTGQPPKLLIYRASTLASGVPSRFKGSGSGTEFTLTISGVECDDAATYYCQGYYSGAIWTFGGGTKVEIKR
# notes: also called DQN0271Lh
# B3: DQN0370hh (antibody, human IgG1, kappa, V domains shown)
# VH: QSLEESGGGLVKPGGPLTLTCTASGFSFSSAYYMCWVRQAPGKGLEWIACIYVGSGSTYYTSWAKGRFTISKVSSTTMTLQMTSLTAADTATYFCARDPLIYYYYGELNLWGPGTLVTVSS
# VL: AVVLTQTASPVSAPVGGTVTIKCQASEDIYSNLAWYQQKPGQRPKVLIYSASTLASGVSSRFKGSRSGTEYTLSITDLGCADAATYYCQAYYDIGGVTFGGGTKVEIKR
# notes: also called DQN0370Lh
# B4: DQN0344xx (antibody, human IgG1, kappa, V domains shown)
# VH: QSLEESGGGLVKPGGTLTLTCTASGFSFSSSYWMCWVRQAPGKGLEWVACVYGGSDTTYYASWTKGRFTISKGSSTTVALQVTSLTAADTATYFCARDPLNYYYYGELNLWGPGTLVTVSS
# VL: AVVLTQTASPVSAAVGGTVTIRCQATENIYSGLAWYQQKPGQPPKVLIYYVSTLASGVPSRFKGSGSGTEYTLTISGVQCDDAATYYCQTYHDISNVTFGGGTKVEIKR
# notes: also called DQN0344Hx; DQN0344Lx
# B5: DQN0303hh (antibody, human IgG1, kappa, V domains shown)
# VH: QQHLEESGGGLVKPGGTLTLTCTASGIDFSSYYYMCWVRQAPGKGLEWIACIYTGDGSTYYASWVNGRFTISRSTSLNTVTLQLNGLAAADTATYFCARSYGASSAIGYFNLWGPGTLVTVSS
# VL: DVVMTQTPSSKSAAVGGTVTIKCQASQNIYSNLAWYQQKPGQRPKLLIYEASTLASGVPSRFRGSGSGTEFTLTISDLECDDAATYYCQNYYYTSSNDFYTFGGGTKVEIKR
# notes: also called DQN0303Lh
# B6: DQN0223hh (antibody, human IgG1, kappa, V domains shown)
# VH: QQQLEESGGGLVKPGGTLTLTCKASRIDFSTYYYICWVRQSPWKGLEWIACIYSGDGYTYYPSWAKGRFSISKTSSTTVTLQVTSLTAADTATYFCARSYGGSSASAYFTLWGPGTQVTVSS
# VL: AVVLTQTASPVSAPVGGTVTIKCQASQSIGSNLGWYQQKPGQPPKLLIYGASALASGVPSRFKGSGSGTQFTLTINDLECADAATYYCQGYYYSSSAEWHSFGGGTKVEIKR
# notes: also called DQN0223Lh
# B7: DQN0333hh (antibody, human IgG1, kappa, V domains shown)
# VH: QSVEESGGRLVMPGGSLTLTCTASGFSLSSYYMNWVRQAPGKGLEWIGVIYSTDITDYATWATGRFTISKTSTTVDLKMTSLTAADTATYFCARELSPTTSGYIAYLWGPGTLVTVSS
# VL: AYDMTQTPASVEVAVGGTVTIKCQASQSISSYLAWYQQKPGQPPKLLIYSASTLASGVPSRFKGSGSGTQFTLTVIDVQCDDAATYYCQQTYSGKNVINTFGGGTKVEIKR
# notes: also called DQN0333Lh
# B8: DQN0356bb (antibody, human IgG1, kappa, V domains shown)
# VH: QEQLVESGGGLVKPEGSLTLTCTASGFSFSSDYSVCWVRQAPGKGLEWIGCIYTGSDITYYASWAKGRFTISKTSSTTVTLQMTSLTAADTATWFCARSWNGYGGYADLWGPGTLVTVSS
# VL: AYDMAQTPASVEVAVGGTVTIKCQASQSIDNYLAWYQQKPGQPPKLLIYWASTLASGVSSRFKGSGSGTQFSLTISDLECADAATYYCQQYYSNSNVVNTFGGGTKVEIKR
# notes: also called DQN0356Hb; DQN0356Lb
# Biological target: T4, HLA-DQ2.5/secalin 2 peptide complex on Ba/F3 cells (human; rye)
# T4 construct: also called Ba/F3-HLA-DQ2.5/secalin 2 peptide
# Assay: FACS
row,Binder,"FIG. 30 FACS value (IC17=0, DQN0139bb=100)"
1,B1,71.1
2,B2,70.2
3,B3,68.1
4,B4,60.6
5,B5,59.4
6,B6,48.4
7,B7,106
8,B8,77.8

# Biological target: T5, HLA-DQ2.5/CLIP peptide complex on Ba/F3 cells (human)
# T5 construct: also called Ba/F3-HLA-DQ2.5/CLIP peptide
# Assay: FACS
row,Binder,"FIG. 30 FACS value (IC17=0, DQN0139bb=100)"
1,B1,82
2,B2,3.8
3,B3,1
4,B5,80
5,B6,60.2
6,B7,116
7,B8,98.3

# Biological target: T6, HLA-DQ2.5/alpha 1b gliadin peptide complex on Ba/F3 cells (human; wheat)
# T6 construct: also called Ba/F3-HLA-DQ2.5/alpha 1b gliadin peptide
# Assay: FACS
row,Binder,"FIG. 30 FACS value (IC17=0, DQN0139bb=100)"
1,B2,80.5
2,B3,79.2
3,B4,75.3
4,B5,41.5
5,B6,36
6,B7,108
7,B8,88

# Biological target: T7, HLA-DQ2.5/omega 2 gliadin peptide complex on Ba/F3 cells (human; wheat)
# T7 construct: also called Ba/F3-HLA-DQ2.5/omega 2 gliadin peptide
# Assay: FACS
row,Binder,"FIG. 30 FACS value (IC17=0, DQN0139bb=100)"
1,B1,78.8
2,B2,68.9
3,B3,65.8
4,B4,3.7
5,B5,91.7
6,B6,59
7,B7,128
8,B8,68.8

# Biological target: T8, HLA-DQ2.5/omega 1 gliadin peptide complex on Ba/F3 cells (human; wheat)
# T8 construct: also called Ba/F3-HLA-DQ2.5/omega 1 gliadin peptide
# Assay: FACS
row,Binder,"FIG. 30 FACS value (IC17=0, DQN0139bb=100)"
1,B1,75.2
2,B2,79.3
3,B3,73.7
4,B4,68.8
5,B5,56.2
6,B6,46
7,B7,106
8,B8,76

# Biological target: T9, HLA-DQ2.5/alpha 2 gliadin peptide complex on Ba/F3 cells (human; wheat)
# T9 construct: also called Ba/F3-HLA-DQ2.5/alpha 2 gliadin peptide
# Assay: FACS
row,Binder,"FIG. 30 FACS value (IC17=0, DQN0139bb=100)"
1,B1,81.3
2,B2,83
3,B3,83.7
4,B4,81.9
5,B5,62.6
6,B6,46.8
7,B7,118
8,B8,85.6

# Biological target: T1, HLA-DQ2.5 on HLA-DQ2.5 positive PBMC-B …
# Assay: FACS
row,Binder,"FIG. 30 FACS value (IC17=0, DQN0139bb=100)"
1,B2,0

# Biological target: T10, HLA-DQ2.5/33mer gliadin peptide complex on Ba/F3 cells (human; wheat)
# T10 construct: also called Ba/F3-HLA-DQ2.5/33mer gliadin peptide; HLA-DQ2.5/gliadin peptide complex
# Assay: FACS
row,Binder,"FIG. 30 FACS value (IC17=0, DQN0139bb=100)"
1,B1,70.1
2,B2,106
3,B3,107
4,B4,106
5,B5,72.8
6,B6,59.5
7,B7,106
8,B8,91.1

# Biological target: T2, HLA-DQ2.5 on Ba/F3 cells (not in the …)
# Assay: FACS
row,Binder,"FIG. 30 FACS value (IC17=0, DQN0139bb=100)"
1,B2,0

# Biological target: T11, HLA-DQ2.5/alpha 1 gliadin peptide complex on Ba/F3 cells (human; wheat)
# T11 construct: also called Ba/F3-HLA-DQ2.5/alpha 1 gliadin peptide
# Assay: FACS
row,Binder,"FIG. 30 FACS value (IC17=0, DQN0139bb=100)"
1,B1,52.3
2,B2,91.2
3,B3,91.2
4,B4,89.7
5,B5,51.4
6,B6,27.9
7,B8,94.9

# Biological target: T12, HLA-DQ2.5/secalin 1 peptide complex on Ba/F3 cells (human; rye)
# T12 construct: also called Ba/F3-HLA-DQ2.5/secalin 1 peptide
# Assay: FACS
row,Binder,"FIG. 30 FACS value (IC17=0, DQN0139bb=100)"
1,B1,73.4
2,B2,65.3
3,B3,79.2
4,B4,73.9
5,B5,64.5
6,B6,47.6
7,B7,110
8,B8,74.5

# Biological target: T3, recombinant HLA-DQ2.5/33mer gliadin …
# Assay: SPR, Ab captured, 37 C, pH 7.4
row,Binder,Kd
1,B2,6.07 nM
2,B3,4.47 nM

# Biological target: T10, HLA-DQ2.5/33mer gliadin peptide complex …
# Assay: cell-based or functional assay
row,Binder,IC50 (read off the curve)
1,B2,~0.3 µg/mL
2,B3,~0.3 µg/mL
3,B4,~0.3 µg/mL
